The target in the test is human FSH receptor (human) (UniProt P23945).
Chain of human FSH receptor (human) (P23945 18-695): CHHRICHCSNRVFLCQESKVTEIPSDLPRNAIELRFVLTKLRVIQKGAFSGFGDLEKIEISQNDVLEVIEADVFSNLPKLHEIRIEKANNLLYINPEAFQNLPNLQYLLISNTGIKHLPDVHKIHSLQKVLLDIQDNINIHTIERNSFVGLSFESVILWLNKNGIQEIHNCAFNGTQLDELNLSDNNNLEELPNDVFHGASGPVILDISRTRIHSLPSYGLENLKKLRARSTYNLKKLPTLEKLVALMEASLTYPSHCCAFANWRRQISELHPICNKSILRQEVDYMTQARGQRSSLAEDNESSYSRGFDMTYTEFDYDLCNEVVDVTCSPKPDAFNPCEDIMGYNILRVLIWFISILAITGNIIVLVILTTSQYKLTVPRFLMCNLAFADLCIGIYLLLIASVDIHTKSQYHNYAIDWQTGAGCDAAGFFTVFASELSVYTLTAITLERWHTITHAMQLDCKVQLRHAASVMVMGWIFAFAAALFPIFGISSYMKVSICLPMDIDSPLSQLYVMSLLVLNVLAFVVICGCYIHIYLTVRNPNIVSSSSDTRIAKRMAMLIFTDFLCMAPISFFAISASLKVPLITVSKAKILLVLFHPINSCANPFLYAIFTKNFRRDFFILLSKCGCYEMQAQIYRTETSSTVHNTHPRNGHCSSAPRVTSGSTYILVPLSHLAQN

“recombinant monkey single-chain FSHβ/α (from UniProt Q6EV79 19-129; Q9BEH3 25-120) (ligand)”: the cAMP accumulation (HTRF) in HEK 293 cells expressing hFSHR, 30 min at room temperature with 0.5 mM IBMX; EC50 of the dose-response curve was found to be 4.9 µL/mL.

The record behind these values is paper PMC12732243.
